Data from publication PMC11432197 (International Journal of Molecular Sciences, 2024).

Biological target: T1, recombinant mTOR kinase domain (amino acid 1363-2549) (UniProt P42345 1363-2549)
T1 construct: also called mTOR kinase domain protein; mTOR (in vitro); source: bought: Sigma-Aldrich (Cat #14-770)
Assay: co-IP; in vitro: ETV7 and mTOR incubated overnight at 4 °C in the presence or absence of Ndel-FRB and/or 120 aa-LBE; ETV7 IPs immunoblotted for mTOR, ETV7 and Flag
Conditions: both partners purified

T1 sequence (P42345 1363-2549): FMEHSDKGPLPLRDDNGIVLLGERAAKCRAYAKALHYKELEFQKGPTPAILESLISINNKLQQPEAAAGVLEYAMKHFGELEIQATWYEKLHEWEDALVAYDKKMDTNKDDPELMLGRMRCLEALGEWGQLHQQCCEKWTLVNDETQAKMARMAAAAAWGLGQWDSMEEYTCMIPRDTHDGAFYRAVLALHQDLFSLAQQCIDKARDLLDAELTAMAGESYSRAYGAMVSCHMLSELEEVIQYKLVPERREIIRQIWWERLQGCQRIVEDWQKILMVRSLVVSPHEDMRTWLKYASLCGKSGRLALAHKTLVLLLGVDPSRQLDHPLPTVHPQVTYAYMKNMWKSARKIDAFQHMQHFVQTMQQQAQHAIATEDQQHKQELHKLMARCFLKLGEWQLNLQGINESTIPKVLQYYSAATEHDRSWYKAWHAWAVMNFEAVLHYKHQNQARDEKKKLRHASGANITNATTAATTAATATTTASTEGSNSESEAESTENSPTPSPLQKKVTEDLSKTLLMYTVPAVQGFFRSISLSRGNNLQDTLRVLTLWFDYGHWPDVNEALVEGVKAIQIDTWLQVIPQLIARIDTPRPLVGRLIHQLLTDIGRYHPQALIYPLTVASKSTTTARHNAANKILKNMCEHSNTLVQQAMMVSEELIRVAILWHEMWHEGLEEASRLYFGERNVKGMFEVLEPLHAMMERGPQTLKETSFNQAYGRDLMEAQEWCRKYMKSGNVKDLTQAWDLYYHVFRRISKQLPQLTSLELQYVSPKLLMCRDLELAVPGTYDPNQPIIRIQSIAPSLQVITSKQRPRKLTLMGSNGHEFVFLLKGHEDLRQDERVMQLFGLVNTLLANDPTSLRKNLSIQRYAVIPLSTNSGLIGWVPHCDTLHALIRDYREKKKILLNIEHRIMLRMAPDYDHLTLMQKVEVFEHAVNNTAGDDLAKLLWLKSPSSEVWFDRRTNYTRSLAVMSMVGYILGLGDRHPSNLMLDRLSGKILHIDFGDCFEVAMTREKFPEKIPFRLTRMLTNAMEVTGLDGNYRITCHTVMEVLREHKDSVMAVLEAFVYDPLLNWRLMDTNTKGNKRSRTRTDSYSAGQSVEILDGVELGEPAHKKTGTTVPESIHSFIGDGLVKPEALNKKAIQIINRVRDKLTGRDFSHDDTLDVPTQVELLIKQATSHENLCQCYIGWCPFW

B1: ETV7 protein (recombinant) (natural protein)
chain: MQEGELAISPISPVAAMPPLGTHVQARCEAQINLLGEGGICKLPGRLRIQPALWSREDVLHWLRWAEQEYSLPCTAEHGFEMNGRALCILTKDDFRHRAPSSGDVLYELLQYIKTQRRALVCGPFFGGIFRLKTPTQHSPVPPEEVTGPSQMDTRRGHLLQPPDPGLTSNFGHLDDPGLARWTPGKEESLNLCHCAELGCRTQGVCSFPAMPQAPIDGRIADCRLLWDYVYQLLLDTRYEPYIKWEDKDAKIFRVVDPNGLARLWGNHKNRVNMTYEKMSRALRHYYKLNIIKKEPGQKLLFRFLKTPGKMVQDKHSHLEPLESQEQDRIEFKDKRPEISP
notes: ETV7, bought recombinant protein; also called ETV7 (in vitro); purified ETV7; source: bought: Origene (Cat #TP307742)
  binding result: binds
